Test results taken from patent US20230034186A1 (DRAGONFLY THERAPEUTICS, published 2023).

Biological target: HER2 (human, UniProt P04626 23-1255)
Assay: cell-based or functional assay

EC50 in KHYG-1-CD16V cell-mediated cytolysis of BT-20 cells: 1160 pM
B1: A49-F3′-TriNKET-Trastuzumab (bispecific antibody)
heavy: EVQLVESGGGLVKPGGSLRLSCAASGFTFSSYSMNWVRQAPGKGLEWVSSISSSSSYIYYADSVKGRFTISRDNAKNSLYLQMNSLRAEDTAVYYCARGAPMGAAAGWFDPWGQGTLVTVSSASTKGPSVFPLAPSSKSTSGGTAALGCLVKDYFPEPVTVSWNSGALTSGVHTFPAVLQSSGLYSLSSVVTVPSSSLGTQTYICNVNHKPSNTKVDKKVEPKSCDKTHTCPPCPAPELLGGPSVFLFPPKPKDTLMISRTPEVTCVVVDVSHEDPEVKFNWYVDGVEVHNAKTKPREEQYNSTYRVVSVLTVLHQDWLNGKEYKCKVSNKALPAPIEKTISKAKGQPREPQVCTLPPSRDELTENQVSLTCLVKGFYPSDIAVEWESNGQPENNYKTTPPVLDSDGSFFLYSWLTVDKSRWQQGNVFSCSVMHEALHNHYTQKSLSLSPG
chain: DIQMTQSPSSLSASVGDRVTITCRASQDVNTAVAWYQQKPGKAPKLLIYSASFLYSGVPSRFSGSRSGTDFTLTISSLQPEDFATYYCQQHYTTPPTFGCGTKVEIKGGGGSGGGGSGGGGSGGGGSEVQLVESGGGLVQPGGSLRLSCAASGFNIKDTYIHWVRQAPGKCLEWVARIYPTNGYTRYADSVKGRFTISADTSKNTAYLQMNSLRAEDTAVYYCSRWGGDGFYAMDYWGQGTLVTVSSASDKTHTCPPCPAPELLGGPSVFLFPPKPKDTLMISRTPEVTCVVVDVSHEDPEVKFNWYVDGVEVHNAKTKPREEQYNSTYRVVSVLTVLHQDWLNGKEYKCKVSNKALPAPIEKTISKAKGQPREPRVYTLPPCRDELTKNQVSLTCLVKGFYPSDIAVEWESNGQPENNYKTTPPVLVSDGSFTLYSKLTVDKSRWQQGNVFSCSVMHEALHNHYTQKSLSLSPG
light: DIQMTQSPSSVSASVGDRVTITCRASQGISSWLAWYQQKPGKAPKLLIYAASSLQSGVPSRFSGSGSGTDFTLTISSLQPEDFATYYCQQGVSFPRTFGGGTKVEIKRTVAAPSPPSDEQLKSGTASVVCLLNNFYPREAKVQWKVDNALQSGNSQESVTEQDSKDSTYSLSSTLTLSKADYEKHKVYACEVTHQGLSSPVTKSFNRGEC
EC50 in KHYG-1-CD16V cell killing of Hs578T cells: 376 pM | fold potency against trastuzumab in triggering NK cell-mediated killing of SKBR-3 cells: 2.5 fold
